In the supplement of paper PMC9876800:

Test system: peptide library, one residue held at a place counted from the S/T acceptor
Assay: relative phosphorylation of the sub-library (ratio to the mean residue at this position); higher = residue favoured
Method in brief: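 Relative sub-library phosphorylation is a ratio to the mean residue at the same position. Purified recombinant kinases were incubated under kinase-specific conditions with biotinylated degenerate peptide sub-libraries, each fixing one residue at one position around a central Ser/Thr, using 50 μM peptide and 50 μM ATP spiked with γ-32P-ATP for 90 min. Spots captured on streptavidin membranes were phosphorimaged and quantified by densitometry.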

Chain of MAP3K11, construct: aa99-398, human (Q16584 99-398, looked up): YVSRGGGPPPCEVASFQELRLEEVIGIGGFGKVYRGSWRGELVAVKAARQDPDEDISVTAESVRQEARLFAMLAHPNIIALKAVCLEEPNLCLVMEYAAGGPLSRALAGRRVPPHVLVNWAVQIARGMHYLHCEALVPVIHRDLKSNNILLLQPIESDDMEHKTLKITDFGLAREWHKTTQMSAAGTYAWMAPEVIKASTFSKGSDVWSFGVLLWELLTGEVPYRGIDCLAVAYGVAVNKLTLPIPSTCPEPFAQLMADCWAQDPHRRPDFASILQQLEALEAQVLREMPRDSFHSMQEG
Chain of MAP3K21, construct: aa98-451, human (Q5TCX8 98-451, looked up): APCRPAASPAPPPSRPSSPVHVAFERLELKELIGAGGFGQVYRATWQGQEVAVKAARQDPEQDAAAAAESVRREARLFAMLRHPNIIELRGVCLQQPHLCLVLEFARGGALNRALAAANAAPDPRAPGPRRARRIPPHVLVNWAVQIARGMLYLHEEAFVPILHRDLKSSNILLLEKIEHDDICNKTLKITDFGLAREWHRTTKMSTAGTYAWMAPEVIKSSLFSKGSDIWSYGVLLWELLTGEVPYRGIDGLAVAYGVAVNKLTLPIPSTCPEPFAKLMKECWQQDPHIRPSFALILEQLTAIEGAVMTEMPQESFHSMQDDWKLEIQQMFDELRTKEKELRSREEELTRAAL

MAP3K11, construct: aa99-398, human (from UniProt Q16584)
relative phosphorylation
Conditions	at +1	at +2	at +3	at +4	at -1	at -2	at -3	at -4	at -5
A fixed	0.654	0.524	0.71	0.779	0.713	0.983	1.06	1.02	1.21
D fixed	0.261	0.298	0.538	0.592	1.06	1.07	1.34	1.66	1.78
E fixed	0.424	0.285	0.445	0.549	0.891	0.89	1.35	1.46	1.24
F fixed	1.15	0.42	1.21	0.746	0.792	1.12	0.841	0.799	0.716
G fixed	0.664	0.458	1.1	1.03	0.453	1.06	1.36	1.34	1.39
H fixed	1.36	1.53	1.17	1.07	1.52	0.919	1.24	1.03	1.14
I fixed	0.625	0.392	0.562	0.605	0.522	0.769	0.428	0.529	0.508
K fixed	1.79	3.9	2.18	3.13	1.3	0.55	0.933	0.901	1.2
L fixed	0.71	0.407	1	0.589	0.946	0.738	0.654	0.722	0.781
M fixed	1.35	0.49	0.743	0.656	1.28	1.16	0.835	0.749	0.634
N fixed	0.699	0.666	0.971	0.834	1.16	0.949	1.1	0.947	0.996
P fixed	0.268	0.352	0.641	1.58	0.914	2.31	1.64	1.63	1.4
Q fixed	1.33	0.705	0.753	0.876	0.901	0.679	0.948	0.89	0.865
R fixed	2.38	4.19	1.9	2.01	1.38	0.678	0.898	0.918	0.993
V fixed	0.903	0.367	0.756	0.647	0.771	0.779	0.581	0.559	0.903
W fixed	1.29	0.729	1.16	0.527	0.928	1.16	0.754	0.924	0.522
Y fixed	1.14	1.29	1.17	0.784	1.48	1.18	1.04	0.92	0.711
pThr fixed	0.895	0.476	0.69	0.685	0.686	1.02	1.18	1.38	1.21
pTyr fixed	0.498	0.528	0.608	0.454	1.08	0.972	1.27	1.06	1.08

MAP3K21, construct: aa98-451, human (from UniProt Q5TCX8)
relative phosphorylation
Conditions	at +1	at +2	at +3	at +4	at -1	at -2	at -3	at -4	at -5
A fixed	0.66	0.456	0.721	0.893	0.777	0.912	0.933	1.05	1.07
D fixed	0.244	0.223	0.462	0.682	1.23	1.55	1.72	1.84	1.8
E fixed	0.435	0.323	0.508	0.676	0.821	1.43	1.97	1.81	1.63
F fixed	1.52	0.38	1.08	0.633	0.875	1.02	0.789	0.676	0.82
G fixed	0.585	0.397	0.796	1.11	0.386	0.992	1.17	1.37	1.24
H fixed	1.21	2.1	1.61	1.16	1.46	1.19	1.19	1.12	1.06
I fixed	1.28	0.502	0.71	0.622	0.534	0.537	0.406	0.49	0.485
K fixed	1.25	2.23	1.52	2.18	1.03	0.356	0.702	0.83	1.03
L fixed	0.726	0.507	1.14	0.58	0.711	0.699	0.545	0.513	0.609
M fixed	1.61	0.467	0.881	0.722	0.914	1.04	0.806	0.818	0.654
N fixed	0.62	0.624	0.829	0.871	1.43	1.18	1.22	1.16	1.01
P fixed	0.185	0.18	0.398	1.46	0.679	1.85	1.19	1.19	1.08
Q fixed	1.16	0.88	0.849	1.16	1.02	1.05	1.16	0.968	0.99
R fixed	1.92	3.75	1.87	2.13	1.4	0.593	0.817	0.902	1.13
V fixed	1.98	0.426	0.81	0.753	0.875	0.52	0.496	0.595	0.682
W fixed	0.707	1.91	1.41	0.702	1.19	0.909	0.872	0.886	0.825
Y fixed	0.907	1.65	1.41	0.661	1.67	1.18	1.02	0.779	0.886
pThr fixed	1.13	0.418	0.664	0.851	0.803	1.09	1.84	1.28	1.35
pTyr fixed	0.604	0.427	0.692	0.519	1.83	1.01	1.17	1.11	1.22
